In US20230407373A1 (priority 2020, published 2023):

B1: HIST1H1D (protein, UniProt P16402 2-221, looked up)
Histone H1.3: SETAPLAPTIPAPAEKTPVKKKAKKAGATAGKRKASGPPVSELITKAVAASKERSGVSLAALKKALAAAGYDVEKNNSRIKLGLKSLVSKGTLVQTKGTGASGSFKLNKKAASGEGKPKAKKAGAAKPRKPAGAAKKPKKVAGAATPKKSIKKTPKKVKKPATAAGTKKVAKSAKKVKTPQPKKAAKSPAKAKAPKPKAAKPKSGKPKVTKAKKAAPKKK
B2: POLG (protein, UniProt P54098 1-1239, looked up)
DNA polymerase subunit gamma-1: MSRLLWRKVAGATVGPGPVPAPGRWVSSSVPASDPSDGQRRRQQQQQQQQQQQQQPQQPQVLSSEGGQLRHNPLDIQMLSRGLHEQIFGQGGEMPGEAAVRRSVEHLQKHGLWGQPAVPLPDVELRLPPLYGDNLDQHFRLLAQKQSLPYLEAANLLLQAQLPPKPPAWAWAEGWTRYGPEGEAVPVAIPEERALVFDVEVCLAEGTCPTLAVAISPSAWYSWCSQRLVEERYSWTSQLSPADLIPLEVPTGASSPTQRDWQEQLVVGHNVSFDRAHIREQYLIQGSRMRFLDTMSMHMAISGLSSFQRSLWIAAKQGKHKVQPPTKQGQKSQRKARRGPAISSWDWLDISSVNSLAEVHRLYVGGPPLEKEPRELFVKGTMKDIRENFQDLMQYCAQDVWATHEVFQQQLPLFLERCPHPVTLAGMLEMGVSYLPVNQNWERYLAEAQGTYEELQREMKKSLMDLANDACQLLSGERYKEDPWLWDLEWDLQEFKQKKAKKVKKEPATASKLPIEGAGAPGDPMDQEDLGPCSEEEEFQQDVMARACLQKLKGTTELLPKRPQHLPGHPGWYRKLCPRLDDPAWTPGPSLLSLQMRVTPKLMALTWDGFPLHYSERHGWGYLVPGRRDNLAKLPTGTTLESAGVVCPYRAIESLYRKHCLEQGKQQLMPQEAGLAEEFLLTDNSAIWQTVEELDYLEVEAEAKMENLRAAVPGQPLALTARGGPKDTQPSYHHGNGPYNDVDIPGCWFFKLPHKDGNSCNVGSPFAKDFLPKMEDGTLQAGPGGASGPRALEINKMISFWRNAHKRISSQMVVWLPRSALPRAVIRHPDYDEEGLYGAILPQVVTAGTITRRAVEPTWLTASNARPDRVGSELKAMVQAPPGYTLVGADVDSQELWIAAVLGDAHFAGMHGCTAFGWMTLQGRKSRGTDLHSKTATTVGISREHAKIFNYGRIYGAGQPFAERLLMQFNHRLTQQEAAEKAQQMYAATKGLRWYRLSDEGEWLVRELNLPVDRTEGGWISLQDLRKVQRETARKSQWKKWEVVAERAWKGGTESEMFNKLESIATSDIPRTPVLGCCISRALEPSAVQEEFMTSRVNWVVQSSAVDYLHLMLVAMKWLFEEFAIDGRFCISIHDEVRYLVREEDRYRAALALQITNLLTRCMFAYKLGLNDLPQSVAFFSAVDIDRCLRKEVTMDCKTPSNPTGMERRYGIPQGEALDIYQIIELTKGSLEKRSQPGP
B3: EEF1A2 (protein, UniProt Q05639 2-463, looked up)
Elongation factor 1-alpha 2: GKEKTHINIVVIGHVDSGKSTTTGHLIYKCGGIDKRTIEKFEKEAAEMGKGSFKYAWVLDKLKAERERGITIDISLWKFETTKYYITIIDAPGHRDFIKNMITGTSQADCAVLIVAAGVGEFEAGISKNGQTREHALLAYTLGVKQLIVGVNKMDSTEPAYSEKRYDEIVKEVSAYIKKIGYNPATVPFVPISGWHGDNMLEPSPNMPWFKGWKVERKEGNASGVSLLEALDTILPPTRPTDKPLRLPLQDVYKIGGIGTVPVGRVETGILRPGMVVTFAPVNITTEVKSVEMHHEALSEALPGDNVGFNVKNVSVKDIRRGNVCGDSKSDPPQEAAQFTSQVIILNHPGQISAGYSPVIDCHTAHIACKFAELKEKIDRRSGKKLEDNPKSLKSGDAAIVEMVPGKPMCVESFSQYPPLGRFAVRDMRQTVAVGVIKNVEKKSGGAGKVTKSAQKAQKAGK
B4: PATLI (protein, UniProt Q86TB9 1-770, looked up)
Protein PAT1 homolog 1: MFRYESLEDCPLDEDEDAFQGLGEEDEEIDQFNDDTFGSGAVDDDWQEAHERLAELEEKLPVAVNEQTGNGERDEMDLLGDHEENLAERLSKMVIENELEDPAIMRAVQTRPVLQPQPGSLNSSIWDGSEVLRRIRGPLLAQEMPTVSVLEYALPQRPPQGPEDDRDLSERALPRRSTSPIIGSPPVRAVPIGTPPKQMAVPSFTQQILCPKPVHVRPPMPPRYPAPYGERMSPNQLCSVPNSSLLGHPFPPSVPPVLSPLQRAQLLGGAQLQPGRMSPSQFARVPGFVGSPLAAMNPKLLQGRVGQMLPPAPGFRAFFSAPPSATPPPQQHPPGPGPHLQNLRSQAPMFRPDTTHLHPQHRRLLHQRQQQNRSQHRNLNGAGDRGSHRSSHQDHLRKDPYANLMLQREKDWVSKIQMMQLQSTDPYLDDFYYQNYFEKLEKLSAAEEIQGDGPKKERTKLITPQVAKLEHAYKPVQFEGSLGKLTVSSVNNPRKMIDAVVTSRSEDDETKEKQVRDKRRKTLVIIEKTYSLLLDVEDYERRYLLSLEEERPALMDDRKHKICSMYDNLRGKLPGQERPSDDHFVQIMCIRKGKRMVARILPFLSTEQAADILMTTARNLPFLIKKDAQDEVLPCLLSPFSLLLYHLPSVSITSLLRQLMNLPQSAATPALSNPHLTAVLQNKFGLSLLLILLSRGEDLQSSDPATESTQNNQWTEVMFMATRELLRIPQAALAKPISIPTNLVSLFSRYVDRQKLNLLETKLQLVQGIR
B5: GANAB (protein, UniProt Q14697 29-944, looked up)
Neutral alpha-glucosidase AB: ITLAVDRSNFKTCEESSFCKRQRSIRPGLSPYRALLDSLQLGPDSLTVHLIHEVTKVLLVLELQGLQKNMTRFRIDELEPRRPRYRVPDVLVADPPIARLSVSGRDENSVELTMAEGPYKIILTARPFRLDLLEDRSLLLSVNARGLLEFEHQRAPRVSQGSKDPAEGDGAQPEETPRDGDKPEETQGKAEKDEPGAWEETFKTHSDSKPYGPMSVGLDFSLPGMEHVYGIPEHADNLRLKVTEGGEPYRLYNLDVFQYELYNPMALYGSVPVLLAHNPHRDLGIFWLNAAETWVDISSNTAGKTLFGKMMDYLQGSGETPQTDVRWMSETGIIDVFLLLGPSISDVFRQYASLTGTQALPPLFSLGYHQSRWNYRDEADVLEVDQGFDDHNLPCDVIWLDIEHADGKRYFTWDPSRFPQPRTMLERLASKRRKLVAIVDPHIKVDSGYRVHEELRNLGLYVKTRDGSDYEGWCWPGSAGYPDFTNPTMRAWWANMFSYDNYEGSAPNLFVWNDMNEPSVFNGPEVTMLKDAQHYGGWEHRDVHNIYGLYVHMATADGLRQRSGGMERPFVLARAFFAGSQRFGAVWTGDNTAEWDHLKISIPMCLSLGLVGLSFCGADVGGFFKNPEPELLVRWYQMGAYQPFFRAHAHLDTGRREPWLLPSQHNDIIRDALGQRYSLLPFWYTLLYQAHREGIPVMRPLWVQYPQDVTTFNIDDQYLLGDALLVHPVSDSGAHGVQVYLPGQGEVWYDIQSYQKHHGPQTLYLPVTLSSIPVFQRGGTIVPRWMRVRRSSECMKDDPITLFVALSPQGTAQGELFLDDGHTFNYQTRQEFLLRRFSFSGNTLVSSSADPEGHFETPIWIERVVIIGAGKPAAVVLQTKGSPESRLSFQHDPETSVLVLRKPGINVASDWSIHLR
B6: ZNF622 (protein, UniProt Q969S3 2-477, looked up)
Cytoplasmic 60S subunit …: ATYTCITCRVAFRDADMQRAHYKTDWHRYNLRRKVASMAPVTAEGFQERVRAQRAVAEEESKGSATYCTVCSKKFASFNAYENHLKSRRHVELEKKAVQAVNRKVEMMNEKNLEKGLGVDSVDKDAMNAAIQQAIKAQPSMSPKKAPPAPAKEARNVVAVGTGGRGTHDRDPSEKPPRLQWFEQQAKKLAKQQEEDSEEEEEDLDGDDWEDIDSDEELECEDTEAMDDVVEQDAEEEEAEEGPPLGAIPITDCLFCSHHSSSLMKNVAHMTKDHSFFIPDIEYLSDIKGLIKYLGEKVGVGKICLWCNEKGKSFYSTEAVQAHMNDKSHCKLFTDGDAALEFADFYDFRSSYPDHKEGEDPNKAEELPSEKNLEYDDETMELILPSGARVGHRSLMRYYKQRFGLSRAVAVAKNRKAVGRVLQQYRALGWTGSTGAALMRERDMQYVQRMKSKWMLKTGMKNNATKQMHFRVQVRF

These molecules were tested on HCoV-OC43 gRNA and sgRNA. Conditions: OC43 Probe II, 12 hpi (type n_12_v), infected cells; tested against no-probe control.
Format: binding

| Molecule | target (unweighted spectral count) |
| --- | --- |
| B1 | 5 |
| B2 | 5 |

Same assay, conditions: type n_48_v; 48 hpi; OC43 Probe II capture on infected cells

| Molecule | target (unweighted spectral count, OC43 Probe II) |
| --- | --- |
| B3 | 5 |
| B4 | 5 |
| B5 | 5 |
| B6 | 5 |

Same assay, conditions: type n_48_v; 48 hpi; no-probe control on infected cells

| Molecule | background (unweighted spectral count, no-probe control) |
| --- | --- |
| B3 | 1 |
| B4 | 1 |
| B5 | 1 |
| B6 | 1 |
